This passage reports Kd, stoichiometry N and binding signal results from publication PMC1180670.

Data set [1] deals with S. pombe Translin (Schizosaccharomyces pombe). Description: EMSA. A general note: In EMSA bound probe runs differently from free probe, usually more slowly.
For data set [2], the target named is recombinant S.pombe Translin (S. pombe). Description: glycerol gradient centrifugation.
A further data set deals with human Translin (Homo sapiens, UniProt Q15631 1-228). Description: EMSA.
human Translin, sequence (Q15631 whole entry): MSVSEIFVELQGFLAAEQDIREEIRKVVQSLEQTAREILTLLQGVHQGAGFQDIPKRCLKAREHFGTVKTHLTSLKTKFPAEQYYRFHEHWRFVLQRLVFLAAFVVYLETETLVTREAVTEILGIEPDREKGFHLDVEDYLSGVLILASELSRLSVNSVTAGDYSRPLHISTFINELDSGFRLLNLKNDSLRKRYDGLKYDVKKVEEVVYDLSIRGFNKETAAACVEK

Broadly, the Kd is the free concentration of one partner at which half of the binding sites on the other are occupied at equilibrium, for simple one-to-one binding. High values mean weaker binding, low ones tighter binding. As a reminder, the stoichiometry N is a count of units in the complex or per binding partner.

Regarding “GTGTGTGTGTGTGTGTGTGTGTGTGTGTGT [d(GT)15]”, the dissociation constant Kd in data set [1] amounted to 18 nM. Molecule GUGUGUGUGUGUGUGUGUGUGUGUGUGUGU [(GU)15] returned an equilibrium dissociation constant (Kd) in data set [1] of 3 nM. As to “recombinant S.pombe Translin (natural protein)”, the stoichiometry N in data set [2] turned out to be 8.

GTGTGTGTGTGTGTGTGTGTGTGTGTGTGT (ssDNA) [d(GT)15]: the binding signal with human Translin was ~2 Kd relative to (GU)15.
